In patent US20190284266A1 (H LUNDBECK A S, published 2019):

Target: T1, hyperphosphorylated (pathological) tau from human Alzheimer's disease brain, phosphorylated at serine 396 (human, UniProt P10636 2-758, phosphoserine at 396; hyperphosphorylated at further sites that are not listed)
T1 construct: Brain-derived material (sections, S1, S1p and sarkosyl-insoluble P3 fractions, PBS extracts), a mixture of isoforms and aggregates; also called AD-P3; AD-P3 antigens
Test: binding of pathological versus non-pathological tau, brain material (Table 5)

T1 sequence (P10636 other isoform, or with tags, fused parts or gaps limits assumed): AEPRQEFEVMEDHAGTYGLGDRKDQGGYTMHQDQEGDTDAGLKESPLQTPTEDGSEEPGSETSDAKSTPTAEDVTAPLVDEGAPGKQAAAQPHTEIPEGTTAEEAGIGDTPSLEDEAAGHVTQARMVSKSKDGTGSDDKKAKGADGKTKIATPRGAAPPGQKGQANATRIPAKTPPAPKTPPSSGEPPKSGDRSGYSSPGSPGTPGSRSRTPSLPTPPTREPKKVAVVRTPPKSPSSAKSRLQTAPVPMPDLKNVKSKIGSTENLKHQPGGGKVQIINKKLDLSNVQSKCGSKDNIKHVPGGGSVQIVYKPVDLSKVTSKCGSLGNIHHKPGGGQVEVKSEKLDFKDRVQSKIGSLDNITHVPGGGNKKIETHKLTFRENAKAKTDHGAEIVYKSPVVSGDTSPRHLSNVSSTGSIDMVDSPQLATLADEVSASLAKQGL

B1: IPN002 (antibody, V domains shown)
VH: EVHLVESGGALVKPGGSLKLSCAASGFSFSKYGMSWVRQTPDKRLEWVATISSSGSRTYYPDSVKGQFTISRDNAKNTLYLQMSSLKSEDTAMYYCSISWDGAMDYWGQGTSVTVSS
VL: DVLMTQTPLSLPVSLGDQASISCKSSQSIVHSNGNTYLEWYLQKPGQSPKLLVYKVSNRFSGVPDRFSGSGSGTDFTLKISRVEAEDLGTYYCFQGSLVPWAFGGGTKLEIK
AD/ctrl (ratio of binding to AD brain tau over control brain tau): 3 fold

B2: HJ8.5 (antibody, V domains shown)
VH: EVKVEESGGGLVQPGGSMKLSCVVSGFTFSNYWVNWVRQSPEKGLEWVAQIRLKSDNYATHYEESVKGRFTISRDDSKSSVYLQMNNLRAEDSGIYYCTNWEDYWGQGTTLTVSS
VL: DIVLTQSPASLAVSLGQRATISCRASQSVSTSRYSYIHWYQQKPGQPPKLLIKYASNLESGVPARFSGSGSGTDFTLNIHPLEEEDAATYYCHHSWEIPLTFGAGTKLELK
AD/ctrl (ratio of binding to AD brain tau over control brain tau): 3 fold
